Results taken from US20250084164A1 (NEXTCURE, published 2025).

Tests used:
[1] = molecular target: T1, monomeric LAIR-1-His (R&D Systems) (UniProt Q6GTX8 22-163); test: BLI (Octet RED96)
T1 chain: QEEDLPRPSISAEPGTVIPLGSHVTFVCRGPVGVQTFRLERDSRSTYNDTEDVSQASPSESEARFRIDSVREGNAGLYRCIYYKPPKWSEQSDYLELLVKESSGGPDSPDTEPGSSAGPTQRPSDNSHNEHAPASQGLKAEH

[2] = molecular target: T2, monomeric LAIR-1-His (R&D Systems) (UniProt Q6GTX8 22-163, limits assumed); test: BLI (Octet RED96), chimeric mAb on anti-human IgG sensor, monomeric LAIR-1-His in solution
T2 construct: Bought protein
T2 sequence (looked up): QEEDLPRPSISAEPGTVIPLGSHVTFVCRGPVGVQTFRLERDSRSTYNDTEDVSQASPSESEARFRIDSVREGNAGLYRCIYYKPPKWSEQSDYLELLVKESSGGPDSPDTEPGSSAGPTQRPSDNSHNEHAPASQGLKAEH
Protocol: Anti-human IgG capture sensors were used to bind to chimeric LAIR-1 mAbs at a density to ensure 1:1 binding to monomeric LAIR-1-His (R&D Systems) in solution at various concentrations. Assay buffer was PBS with 0.05% Tween-20 and regeneration buffer was 10 mM glycine pH 1.5. First, chimeric LAIR-1 mAbs were loaded to sensor. This was followed by association step with LAIR-1-His, and a dissociation step in a separate LAIR-1-His free well. Data was processed using ForteBio data analysis software 9.0. A global fit was used following subtraction of reference wells. The reported average KD values are from at least three independent Octet runs with high confidence of accuracy based on X2 and R2 values. Note the two chimeric versions of 12E10 were tested. Both had relatively low affinity, while the 12E10V2 mAb was removed from usage due to very low affinity.

B1: chimeric LAIR-1 mAb 5A6 (antibody, V domains shown)
VH: QVQLQQSGAELARPGASVKLSCKASGYTFTSYGISWVKQRTGQGLEWIGEIYPRRGNTYYNEKFKGKATLTADKSSSTAYMELRSLTSEDSAVYFCARQLFAYWGQGTLVTVSA
VL: DIQMTQSPSSLSASLGERVSFSCRASQDIGSSLNWLQQEPDGTIKRLIYATSSLDSGVPKRFSGSRSGSDYSLTISSLESEDFVEYYCLQYDSFPYTFGGGTKLEIK
B1 was tested, and the Kd [1] was 23.3 nM.

B2: chimeric LAIR-1 mAb 6B2 (antibody, V domains shown)
VH: EVQLVESGGGLVQPKGSLKLSCAASGFSFNINAMNWVRQAPGKGLEWVARIRSKSNNYETYYADSVKDRFTISRDDSESMVYLQMNNLKTEDTAMYYCVRSLWFVYWGQGTLVTVSA
VL: DIQMTQSPASQSASLGESVTITCLASQTIGTWLAWYQQKPGKSPQLLIYAATSLADGVPSRFSGSGSGTKFSFKISSLQAEDFVSYYCQQLYSTPLTFGAGTKLELK
B2 was tested, and the Kd [1] was 6.53 nM.

B3: 9H6 (antibody, V domains shown)
VH: EVQLVESGGGLVQPKGSLKLSCAASGFSFNTHAMNWVRQAPGKGLEWVARIRTKSNNYATYYADSVKDRFIISRDDSENMVYLQMNNLKTEDTAIYYCVRLRGGFLDYWGQGTTLTVSS
VL: DIQMTQSPASQSASLGESVTITCLASQTIGTWLAWYQQKPGRSPQLLIYAATSLADGVPSRFSGSGSGTKFSFKINSLQAEDFVSYYCQQLYSTPFTFGSGTKLEIK
In the case of B3, the Kd [1] is reported as 11.6 nM.

B4: chimeric 5E1 (antibody, V domains shown)
VH: EVQLQQSGPELVKPGASVKISCKASGYSFTGYFMNWVKQSPEKSLEWIGEIHPSTGSIIYNQKFKAKATLTIDKSSSTAYMQLKSLTSEDSAVYYCARFDYSNSFAYWGQGTLVTVSA
VL: DIQMTQTTSSLSASLGDRVTISCRASQDISNYLNWYQQKPDGTVKLLIYYTSRLHSGVPSRFSGSGSGTDYSLTISNLEQEDIATYFCQQGNTLPRTFGGGTKLEIK
notes: Chimeric mAb
For B4, the Kd [1] was 3.92 nM and the Kd [2] was < 5 nM.

B5: chimeric 11B3 (antibody, V domains shown)
VH: EVQLVESGGGLVQPKGSLKLSCAASDFTFNTYAMHWVRQAPGKGLEWVARIRTKSNNYATYYADSVKDRFTISRDDSQSMLYLQMNNLTTEDTAMYYCVRDRYGGAMDYWGQGTSVTVSS
VL: DIQMAQSSSSFSVSLGDRVTITCKASEDIYIRLAWYQQKPGNAPRLLISTATSLETGVPSRFSGSGSGKDYTLSITSLQTEDVATYYCQQYWSTPYTFGGGTRLEIK
notes: Chimeric mAb
B5 was tested, and the Kd [1] was 1.98 nM and the Kd [2] was < 5 nM.

B6: chimeric LAIR-1 mAb 4B3 (antibody, V domains shown)
VH: QIQLQQSGAELARPGASVKLPCKASDYIFISYGLNWVRQTTGQGLEWIGEIYPRSGHTYYNEKFKGKATLTADKSSSTAYMELRSLTSEDSAVYFCARRSVFYDYDKNGFDYWGQGTTLTVSS
VL: DIVMKQSPSSLRVSAGEKVTMSCKSSQSLLNSGNQKNYLAWYQQKPGQPPKLLIYGASTRESGVPDRFTGSGSGTDFALTISSVQAEDLAVYYCQNDHSYPFTFGSGTKLEIK
For B6, the Kd [1] was 32.3 nM.

B7: chimeric 1E11 (antibody, V domains shown)
VH: QVQLQQSGPELVKPGASVKLSCKASGYTFTSYDINWVKQRPGQGLEWIGWIYPRDGSTKYNEKLKGKATLTVDTSSRTAYMELHSLTSEDSAVYFCARGGYYDYDGYWGQGTLVTVSA
VL: DIVMTQAAFSNPVTLGTSASISCRSSKSLLHSNGITYLYWYLQKPGQSPQVLIYQMSSLASGVPDRFSSSGSGTEFTLRISRVEAEDVGVYYCAQNLELPLTFGAGTKLELK
notes: Chimeric mAb (mouse variable, human constant)
With B7 the Kd [1] was 1.37 nM and the Kd [2] was < 5 nM.

B8: chimeric LAIR-1 mAb 7G3 (antibody, V domains shown)
VH: QVQLQQSGPELVKPGASVKLSCKASGYTFTTYDINWVKQRPGQGLEWIGWIYPRDGTTKYNEKFKGKATLTVDTSSTTAYMELHSLTSEDSAVYFCARGGYYDYDGYWGQGTLVTVSA
VL: DIVMTQAAFSNPVTLGTSASISCRSSKSLLHSNGITYLYWYLQKPGQSPQVLIYQMSNLASGVPDRFSSSGSGTEFTLRISRVEAEDVGVYYCAQNLEFPLTFGAGTKLELK
notes: Chimeric mAb
B8 was tested, and the Kd [1] was 1.63 nM and the Kd [2] was < 5 nM.

B9: chimeric 6G6 (antibody, V domains shown)
VH: EVQLQQSGPELVKPGASVKISCKASGYTFTTYYMNWVKQSHGKSLEWIGNINPDNGITSYNQKFKGKATLTVDKSSSTAYMELRSLTSEDSAVYYCARGKSLAYWGQGTLVTVSA
VL: DIVMTQSHKFMSTSVGDRVSITCKASQNVGTAVAWYQQKPGQSPKLLIYWASIRHTGVPDRFTGSGSGTDFTLTISNVQSEDLADYFCQQYSSHPYTFGGGTKLEIK
notes: Chimeric mAb
With B9 the Kd [1] was 4.7 nM and the Kd [2] was < 5 nM.

B10: chimeric LAIR-1 mAb 6F4 (antibody, V domains shown)
VH: QVQLQQSGAELAKPGASVKLSCKASGYTFTSYWMHWVKQRPGQGLEWIGYINPFSGHTKYNQKFKDKATLTADKSSSTAYMQLSSLTYEDSAVYYCARNFDQWGQGTTLTVSS
VL: DIKMTQSPSSMYASLGERVTITCKASQDINSYLSWVQQKPGKSPKTLIDRANRLVDGVPSRFSGSGSGQDYSLTISSLEYEDMGIYYCLQYDEFPPYTFGGGTKLEIK
For B10, the Kd [1] was 12.8 nM.

B11: 12E10V1 (antibody, V domains shown)
VH: QVQLQQSGAELARPGTSVKLSCKASGYTFTSCGLSWVKQRTGQGLEWIGEIYPSNGNSYYSDKVKDKATLTADKSSSTAYMELRSLTSEDSAVYFCARAYYTNGYYAMDYWGQGTSVTVSS
VL: DIVMTQSQKFMSTSVGDRVSITCKASQNVRSAVAWYQQKPGQSPKTLIYLASNRHTGVPDRFTGSGSGTDFTLTISNVQSEDLADYFCLQHWNYPLTFGAGTKLELK
B11 gave a Kd [1] of 20.2 nM.
